For the data set, the target named is MyoD:E12 heterodimer (UniProt P10085;P15806 P10085:1-318,P15806:1-651). The data set can be described thus: EMSA. For orientation: Mobility shift assays separate free from complexed probe on a gel.

These results are taken from patent publication US5352595, “Myod regulatory region” (Fred Hutchinson Cancer Research Center).

Sequence of MyoD:E12 heterodimer (P10085 whole entry, chain 1 of 2): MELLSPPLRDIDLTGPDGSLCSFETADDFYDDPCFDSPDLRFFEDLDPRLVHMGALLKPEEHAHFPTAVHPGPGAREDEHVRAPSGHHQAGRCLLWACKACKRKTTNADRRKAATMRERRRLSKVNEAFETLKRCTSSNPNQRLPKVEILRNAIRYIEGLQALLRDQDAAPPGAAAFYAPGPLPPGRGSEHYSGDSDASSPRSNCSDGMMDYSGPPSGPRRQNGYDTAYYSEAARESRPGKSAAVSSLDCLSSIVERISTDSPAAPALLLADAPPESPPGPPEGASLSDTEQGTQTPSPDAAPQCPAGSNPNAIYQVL
Sequence of MyoD:E12 heterodimer (P15806 whole entry, chain 2 of 2): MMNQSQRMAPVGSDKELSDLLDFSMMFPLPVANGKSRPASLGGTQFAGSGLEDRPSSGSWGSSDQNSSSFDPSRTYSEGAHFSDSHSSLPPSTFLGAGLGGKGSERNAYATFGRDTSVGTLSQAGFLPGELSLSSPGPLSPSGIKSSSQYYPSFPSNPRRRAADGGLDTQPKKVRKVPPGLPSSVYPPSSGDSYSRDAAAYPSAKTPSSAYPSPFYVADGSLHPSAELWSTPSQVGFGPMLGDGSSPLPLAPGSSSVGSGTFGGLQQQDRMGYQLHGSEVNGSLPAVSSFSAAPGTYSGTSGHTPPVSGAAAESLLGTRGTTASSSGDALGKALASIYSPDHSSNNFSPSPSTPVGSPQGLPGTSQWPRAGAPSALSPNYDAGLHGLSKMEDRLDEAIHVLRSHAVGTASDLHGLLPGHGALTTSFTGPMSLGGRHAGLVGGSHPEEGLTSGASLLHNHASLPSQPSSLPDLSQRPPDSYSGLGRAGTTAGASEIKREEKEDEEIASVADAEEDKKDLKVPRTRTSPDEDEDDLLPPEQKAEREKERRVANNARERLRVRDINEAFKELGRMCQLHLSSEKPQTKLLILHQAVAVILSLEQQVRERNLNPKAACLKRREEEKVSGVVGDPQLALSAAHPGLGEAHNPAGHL

B1: myoD PRR A site (-190) (dsDNA)
DNA 1: GGCAGCTGCC
DNA 2: GGCAGCTGCC
B1: the binding result was “binds”.
